Consider two molecules from PMC3093317 (Molecular Biology of the Cell, 2011).

The target in series [1] is HA-tagged YadA-MA expressed in E. coli (Yersinia enterocolitica) (UniProt P0C2W0). Put plainly: SDS-PAGE of the SDS-stable oligomer with monomerization by boiling in urea.
Series [2] deals with the molecule itself. The series is described as above.

A word on the stoichiometry N: it is a count of units in the complex or per binding partner.

On to “HA-tagged YadA-MA expressed in E. coli (from UniProt P0C2W0 335-422) (domain or fragment)”, for which the stoichiometry N in series [1] worked out at 3.

B1: HA-tagged YadA-MA-S417G, expressed in yeast (domain or fragment)
chain: FHQLDNRLDKLDTRVDKGLASSAALNSLFQPYGVGKVNFTAGVGGYRSSQALAIGSGYRVNESVALKAGVAYAGSSDVMYNAGFNIEW
As to B1, in series [2], the “stoichiometry N” value amounted to 3.
